The target in test [1] is T1, human TIGIT on the surface of Jurkat-hTIGIT cells (human, UniProt Q495A1 22-244).
T1 construct: whole, on cells; also called human TIGIT on the surface of Jurkat cells
T1 sequence (looked up): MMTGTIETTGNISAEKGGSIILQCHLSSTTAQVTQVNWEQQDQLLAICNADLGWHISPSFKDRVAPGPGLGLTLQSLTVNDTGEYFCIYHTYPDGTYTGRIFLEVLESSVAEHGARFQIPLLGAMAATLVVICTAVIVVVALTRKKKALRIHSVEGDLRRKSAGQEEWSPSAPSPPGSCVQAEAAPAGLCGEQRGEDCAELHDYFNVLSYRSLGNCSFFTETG
The experiment in a line: flow cytometry, blocking of 1 ug/mL PVR-mFc binding to Jurkat-hTIGIT cells. As to the method: Jurkat-hTIGIT cells (human T lymphocytes, human TIGIT positive) were incubated with different concentrations of the bispecific antibodies JS-1, JS-3, JS-5 and JS-9 and 1 μg/mL human PVR-mFc protein at 4° C. for 30 min, then washed and incubated with a fluorescence-labeled anti-mouse IgG secondary antibody (1:200) in a dark place at 4° C. for 30 min. Finally, the cells were collected using a flow cytometer (BD Canto II), and the fluorescent antibodies bound to the cell surface were detected. Raw data were analyzed using FlowJo to obtain MFI values, antibody dose-dependent binding curves (FIG. 4) were fitted using GraphPad, and IC50 was calculated. The positive controls were hu20 (a recombinant humanized anti-TIGIT monoclonal antibody) and JS-Ref (Hengrui) (an anti-TIGIT/CD112R bispecific antibody of Hengrui, expressed and purified according to the sequence of the patent WO2021180205), and the negative control was an anti-KLH-hIgG4 antibody.

Test [2] addresses T2, recombinant human TIGIT (His Tag) (human, UniProt Q495A1 22-141).
T2 construct: Coated antigen of the ELISA; not shown: His tag
T2 sequence (looked up): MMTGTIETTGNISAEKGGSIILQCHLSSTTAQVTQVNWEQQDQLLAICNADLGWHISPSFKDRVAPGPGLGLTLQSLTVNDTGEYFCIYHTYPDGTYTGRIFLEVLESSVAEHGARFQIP
Nature of the test: ELISA, plate coated with recombinant human TIGIT (His Tag), detection with HRP anti-human IgG4 Fc; unit taken from the concentration axis [2a]. Here is the method: (§1) 2. Procedures [0241] a. A 96-well plate was coated with 1.5 μg/mL recombinant human TIGIT (His Tag) (Suzhou Junmeng) as the antigen at 100 μL/well and incubated at 37° C. for 1.5 h. [0242] b. The plate was washed 4 times with 300 μL/well 1×PBST, and 2% BSA was added at 200 μL/well. The plate was blocked at 37° C. for 1.5 h. [0243] c. The plate was washed 4 times with 300 μL/well 1×PBST, and serial dilutions of the bispecific antibodies JS-1,3,5,9 and a negative control: antibody (anti-KLH hIgG4) (initial concentration 1.0 μg/mL, 3-fold serially diluted to 12 concentration points, 100 μL/well) were added. The plate was incubated at 37° C. for 1 h. [0244] d. The plate was washed 4 times with 300 μL/well 1×PBST. [0245] e. 5000-fold diluted horseradish peroxidase (HRP)-conjugated mouse anti-human IgG4 Fc antibody (Southern Biotech, 9200-05) was added at 100 μL/well, and the plate was incubated at 37° C. for 1 h. […] The plate was washed 4 times with 300 μL/well 1×PBST. [0247] g. 0.1 mg/mL TMB was added at 100 μL/well, and after the plate was incubated at 37° C. for 15 min, a 2 M solution of hydrochloric acid was added at 100 μL/well to stop the reactions. [0248] h. The absorbance was measured at 450 nm/620 nm on a microplate reader, and data were analyzed using Graphpad Prism7.
Background: In an ELISA, binding on a coated surface is turned into a signal by an enzyme label.

The target of test [3] is T2, recombinant human TIGIT (His Tag). Nature of the test: ELISA, plate coated with recombinant human TIGIT (His Tag), detection with HRP anti-human IgG4 Fc; unit taken from the concentration axis [2b]. As to the method: as §1
Test [4] addresses T3, recombinant human HX1 hCD112R Fc (human, UniProt Q6DKI7 41-171, limits assumed).
T3 construct: Coated antigen of the ELISA (Suzhou Junmeng); also called human CD112R; not shown: Fc part
T3 sequence (looked up): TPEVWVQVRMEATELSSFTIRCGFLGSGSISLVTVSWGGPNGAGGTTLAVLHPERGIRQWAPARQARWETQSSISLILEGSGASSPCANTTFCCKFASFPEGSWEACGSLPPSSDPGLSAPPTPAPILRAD
The experiment in a line: ELISA, plate coated with recombinant human HX1 hCD112R Fc, detection with HRP anti-human IgG4 Fc; unit taken from the concentration axis [3a]. Here is the method: (§2) 2. Procedures [0255] a. A 96-well plate was coated with 1.0 μg/mL recombinant human HX1 hCD112R Fc (Suzhou Junmeng) as the antigen at 100 μL/well and incubated at 37° C. for 1.5 h. [0256] b. The plate was washed 4 times with 300 μL/well 1×PBST, and 2% BSA was added at 200 μL/well. The plate was blocked at 37° C. for 1.5 h. [0257] c. The plate was washed 4 times with 300 μL/well 1×PBST, and serial dilutions of the bispecific antibodies JS-1,3,5,9 and a negative control: antibody (anti-KLH hIgG4) (initial concentration 3.0 μg/mL, 3-fold serially diluted to 12 concentration points, 100 μL/well) were added. The plate was incubated at 37° C. for 1 h. [0258] d. The plate was washed 4 times with 300 μL/well 1×PBST. [0259] e. 5000-fold diluted horseradish peroxidase (HRP)-conjugated mouse anti-human IgG4 Fc antibody (Southern Biotech, 9200-05) was added at 100 μL/well, and the plate was incubated at 37° C. for 1 h. [0260] f. The plate was washed 4 times with 300 μL/well 1×PBST. [0261] g. 0.1 mg/mL TMB was added at 100 μL/well, and after the plate was incubated at 37° C. for 15 min, a 2 M solution of hydrochloric acid was added at 100 μL/well to stop the reactions. […] The absorbance was measured at 450 nm/620 nm on a microplate reader, and data were analyzed using Graphpad Prism7.

A further test concerns the target T4, human CD112R-mFc protein (human, UniProt Q6DKI7 41-171, limits assumed).
T4 construct: also called human CD112R protein; not shown: mouse Fc (mFc)
T4 sequence (looked up): T3 sequence (looked up)
Nature of the test: flow cytometry, blocking of 1 ug/mL CD112R-mFc binding to CHO hCD112 cells. As to the method: CHO hCD112 cells (Chinese hamster ovary cells, human CD112 positive) were incubated with different concentrations of the bispecific antibodies JS-1, JS-3, JS-5 and JS-9 and 1 μg/mL human CD112R-mFc protein at 4° C. for 30 min, then washed twice and incubated with a fluorescence-labeled anti-mouse IgG secondary antibody (1:200) in a dark place at 4° C. for 30 min. Finally, the cells were collected using a flow cytometer (BD Canto II), and the fluorescent antibodies bound to the cell surface were detected. Raw data were analyzed using FlowJo to obtain MFI values, antibody dose-dependent binding curves (FIG. 4) were fitted using GraphPad, and IC50 was calculated. The positive controls were hu52 (a recombinant humanized anti-CD112R monoclonal antibody) and JS-Ref (Hengrui) (an anti-TIGIT/CD112R bispecific antibody of Hengrui, expressed and purified according to the sequence of the patent WO2021180205), and the negative control was an anti-KLH-hIgG1 antibody.

For test [5], the target named is T3, recombinant human HX1 hCD112R Fc. Nature of the test: ELISA, plate coated with recombinant human HX1 hCD112R Fc, detection with HRP anti-human IgG4 Fc; unit taken from the concentration axis [3b]. As to the method:
as §2

Data on two molecules can be found in patent US20240117043A1 (SHANGHAI JUNSHI BIOSCIENCES, published 2024).

B1: hu20 (a recombinant humanized anti-TIGIT monoclonal antibody) (antibody, V domains shown)
VH: QVQLVQSGAEVKKPGASVKVSCKTSGYAFTEYTMHWVRQAPGKGLEWMGGINPNTGGTTYNQKFQGRVTLTVDKSSSTAYMELSSLRSEDTVVYYCAKLLRLMYYFDYWGQGTLVTVSS
VL: DIQMTQSPSSLSASVGDRVTITCQASQDVRTAVAWYQQKPGKAPKLLIYSASYRYTGVPSRFSGSGSGTDFTFTISSLQPEDIATYYCHQHYITPWTFGGGTKVEIKR
notes: vector hu20-2O18HC-3; also called hu20 mAb; anti-TIGIT antibody; not shown: heavy chain constant region
What is called IC50 is the concentration that gives 50% inhibition. Low readings indicate greater potency in that assay, high ones weaker potency in that assay. For orientation: EC50 means the concentration needed to bring the measured effect to its halfway point. On to B1, for which the IC50 in test [1] is 1.98 nM. The EC50 was 20.9 ng/mL in test [2] and 6.63 ng/mL in test [3].

B2: hu52 (a recombinant humanized anti-CD112R monoclonal antibody) (antibody, human IgG4 S228P, kappa, V domains shown)
VH: EVQLVESGGGLVKPGGSLRLSCAASGFTFSSYHMSWVRQAPGKGLELVSAINSNGINTYYLDTVKGRFTISRDNAKNSLYLQMNSLRAEDTAVYYCARHEDYYGFAMDYWGQGTLVTVSS
VL: DIVMTQSPDSLAVSLGERATINCKASQSVSNDVAWYQQKPGQPPKLLIYYVSHRFTGVPDRFSGSGSGTDFTLTISSLQAEDVAVYFCHQAYRSPWTFGQGTKLEIKR
notes: also called hu52 mAb; anti-CD112R antibody
As to B2, the figures for the EC50 in test [4] and in test [5] were 2.46 ng/mL and 2.62 ng/mL, respectively. The molecule also yielded an IC50 with human CD112R-mFc protein of 0.601 nM.
